{
  "source": "paper PMC6232179",
  "about": "(Scientific Reports, 2018)",
  "key": {"COX-2 peroxidase": {"tested_on": "COX-2 peroxidase", "conditions": "COX-2 H374Y mutant; cited from earlier work", "from_the_text": "Thus, we generated a cell line overexpressing His-tagged COX-2 (HEK293 COX-2 OE) as well as a cell line overexpressing the His-tagged COX-2 H374Y mutant (Fig. 6A), which has a 300-fold reduction in peroxidase activity."}, "IRE1-NLD": {"tested_on": "IRE1-NLD", "experiment": "MST, COX-2 titrated to RED-labeled IRE1-NLD", "type": "binding", "conditions": "red labelled IRE1-NLD, Suppl. Fig. S9", "procedure": "MST was carried out using a Monolith NT.115 instrument (NanoTemper). To evaluate COX-2 binding to IRE1-NLD, an increasing concentration of purified COX-2 protein (0–10 µM) was incubated with RED-labeled purified IRE1-NLD protein (NanoTemper; as per manufacturer’s protocol). The reverse was also performed, with RED-labeled purified COX-2 incubated with an increasing concentration of purified IRE1-NLD. Positive (cyclophilin A) and negative controls (carbonic anhydrase) were included. […] Positive (cyclophilin A) and negative controls (carbonic anhydrase) were included. […] Experiments were done in triplicate and data evaluation was performed using the Monolith software (NanoTemper)."}},
  "data": [
    {"molecule": "COX-2 H374Y: COX-2 H374Y mutant protein (protein, left off: His6, end not stated, state not stated, COX-2 H374Y mutant protein) ANPCCSHPCQNRGVCMSVGFDQYKCDCTRTGFYGENCSTPEFLTRIKLFLKPTPNTVHYILTHFKGFWNVVNNIPFLRNAIMSYVLTSRSHLIDSPPTYNADYGYKSWEAFSNLSYYTRALPPVPDDCPTPLGVKGKKQLPDSNEIVEKLLLRRKFIPDPQGSNMMFAFFAQHFTHQFFKTDHKRGPAFTNGLGHGVDLNHIYGETLARQRKLRLFKDGKMKYQIIDGEMYPPTVKDTQAEMIYPPQVPEHLRFAVGQEVFGLVPGLMMYATIWLREHNRVCDVLKQEHPEWGDEQLFQTSRLILIGETIKIVIEDYVQHLSGYHFKLKFDPELLFNKQFQYQNRIAAEFNTLYHWYPLLPDTFQIHDQKYNYQQFIYNNSILLEHGITQFVESFTRQIAGRVAGGRNVPPAVQKVSQASIDQSRQMKYQSFNEYRKRFMLKPYESFEELTGEKEMSAELEALYGDIDAVELYPALLVEKPRPDAIFGETMVEVGAPFSLKGLMGNVICSPAYWKPSTFGGEVGFQIINTASIQSLICNNVKGCPFTSFSVPDPELIKTVTINASSSRSGLDDINPTVLLKERSTEL", "values": [
      {"measurement": "fold reduction in peroxidase activity", "setting": "COX-2 peroxidase", "result": 300, "unit": "fold"},
      {"measurement": "binding to IRE1-NLD (MST), wild-type and H374Y", "setting": "IRE1-NLD", "result": "bound to IRE1-NLD"}
    ]}
  ]
}
